167 variants from the RNAGym collection of RNA variant scans (doi:10.7554/elife.80360) can be followed below.

To fix the notation:
B1: HDV Ribozyme (parent)
chain: GGCCGGCAUGGUCCCAGCCUCCUCGCUGGCGCCGGCUGGGCAACAUUCCGAGGGGACCGUCCCCUCGGUAAUGGCGAAUGGGACCCA

The variants in the series derive from B1. Nature of the series: self-cleavage, relative activity (ratio to wild type); higher = more cleavage; co-transcriptional.
C19A U60A: the self-cleavage is 0.141.
G6C U47C: the self-cleavage came to 0.453.
As for C36A G53U, the self-cleavage was found to be 0.19.
Turning to A42C G68C, the self-cleavage was 0.198.
The figure for C15U G52A is 0.863; for U12A G28U it is 0.181; for G10A C21G it is 0.126.
As to C14U U65A, the self-cleavage came to 1.22.
The value for C13A G34A was 0.131; that for G5U C75A was 0.101; that for C14A C63U was 0.731.
In the case of C57G C58G, the self-cleavage stood at 0.943.
The figure for G50C C86U is 0.748; for C66U G74C it is 0.363.
On to G53A C86A, for which the self-cleavage came to 1.16.
As to G11C A78C, the self-cleavage turned out to be 0.0369.
As to A43C A51G, the self-cleavage was 0.499.
As for U46G G82C, the self-cleavage was 0.158.
For the variant G55A A78G, the self-cleavage is 0.698.
The figure for C62G G80A is 0.185; for C44A C48G it is 0.594; for U27A G68A it is 0.944.
The value for G31A C66U was 0.387; that for C49U G82A was 0.436.
The figure for G2U A8G is 0.0272; for C3G G67A it is 0.682.
Regarding A51C U60G, the self-cleavage is 0.95.
C33G G73C: the self-cleavage was 0.253.
With C66G A78C, the self-cleavage worked out at 0.148.
The figure for A71C C75A is 0.0852; for U47G C49A it is 1.09.
With A43U A51U, the self-cleavage is 0.332.
The figure for C4U U65C is 1.06; for U27C C64U it is 0.895.
The figure for G25C G59U is 0.116; for G54U C85G it is 0.888.
As to A45U A56U, the self-cleavage worked out at 0.831.
The value for G31C C44U was 0.106.
Turning to U60G C63U, the self-cleavage is 0.982.
The value for C36G A70C was 0.
Regarding C7U G40A, the self-cleavage was 0.752.
The value for G55C G80A was 0.34.
The value for U46A G50U was 0.73; that for G2U U47C was 0; that for C14A C86A was 0.886.
For the variant A8G U37C, the self-cleavage was 1.22.
The value for G28A G55C was 0.0252; that for G67A A70C was 0.475; that for G38A A45C was 0.0804.
The value for A16U G31U was 0.225; that for G40C G80C was 0.0608; that for A16G C19G was 0.151.
The value for C24U A56G was 0.77; that for C36U G38C was 0.113; that for C32A A56G was 0.252.
As for C57G C84A, the self-cleavage came out at 0.933.
The value for A16U G59C was 0.997; that for U12A A45C was 0.
As for G2C C84A, the self-cleavage stood at 0.0462.
U46C A77G: the self-cleavage turned out to be 0.516.
The figure for G5U G82C is 0; for C4A G34A it is 0.284.
Consider U12A C63G, for which the self-cleavage stood at 0.293.
The value for G11A U79A was 0.0652; that for A8G G25C was 0.175.
With C24G C57A, the self-cleavage was 0.0432.
On to G6C C30U, for which the self-cleavage is 0.0723.
The figure for G74C A83U is 0.185; for C66U C85A it is 1; for C19G G35U it is 0.119.
Take G67A A83G: the self-cleavage was found to be 0.39.
The figure for G25U A42C is 0.135; for G17C G28A it is 0.0449; for A8G C64A it is 0.764.
For C21U G38C, the self-cleavage was 0.0923.
The value for C41G U65G was 0.692; that for C26G G50U was 1.05; that for G10C C33G was 0.145.
Turning to C15A G38C, the self-cleavage amounted to 0.0831.
For C86A A87G, the self-cleavage was found to be 0.804.
The value for C30G U69C was 0.18; that for G52A A70C was 0.791.
Turning to G54C C85A, the self-cleavage worked out at 0.831.
The figure for A71C G73C is 0.378; for G10C A71U it is 0.767; for C33G A83G it is 0.0963.
As to C26A A83U, the self-cleavage amounted to 0.796.
For the variant G28U G74A, the self-cleavage was 0.0528.
The value for G54U U60A was 0.946; that for C18U C32A was 0.166; that for C14A A16C was 0.755.
As to C30G A51U, the self-cleavage stood at 0.0297.
As for C3G C84U, the self-cleavage amounted to 0.736.
As for G40U A43C, the self-cleavage turned out to be 0.374.
For C13U G39C, the self-cleavage worked out at 0.0369.
As to C3U G76U, the self-cleavage turned out to be 0.973.
The value for G59C C86U was 1.01; that for C21A C64U was 0.0852; that for C32A G39U was 0.237.
The figure for G6U G53U is 0.643; for G53U G73C it is 0.428; for A16G C48G it is 0.914.
The figure for C15G U60C is 0.7; for U69G G80A it is 0.233; for C15A G53U it is 0.808.
In the case of C13U G74C, the self-cleavage was found to be 0.0627.
As to G6U G76U, the self-cleavage was determined as 0.731.
As for C61A C64A, the self-cleavage turned out to be 0.96.
The figure for C21G C48A is 0; for G40A A51U it is 0.844; for U20G C64G it is 0.196.
G5A A16C: the self-cleavage came out at 0.166.
The value for U69C G76C was 1.11.
With U69C G76A, the self-cleavage is 1.07.
Consider C7U U20G, for which the self-cleavage was 0.133.
In the case of A56C G67C, the self-cleavage stood at 1.01.
As to A16C G74C, the self-cleavage is 0.185.
Consider G50U G55A, for which the self-cleavage stood at 1.11.
With C41A G50C, the self-cleavage is 0.877.
The figure for C30A C66U is 0.421; for C4A U60G it is 0.0449; for G52A A77C it is 0.309.
The value for C22G C61G was 0.104.
The value for G5A C26G was 0.427; that for G35A G73A was 0.372; that for C36G C58A was 0.201.
As for G39A A43C, the self-cleavage worked out at 0.185.
For U47G G53C, the self-cleavage came out at 1.19.
The figure for G59A G67A is 0.979; for C33G U69C it is 0.277; for A43U U65A it is 0.584.
The value for A71G A87U was 0.95.
For C18G A70G, the self-cleavage is 0.161.
The figure for G11A C36U is 0.156; for U37G U69G it is 0.0723; for C44U G50U it is 0.772.
The figure for C49A C62G is 0.128.
The figure for U47C C86A is 0.806; for G2C C32G it is 0.0554.
In the case of C24U U47A, the self-cleavage worked out at 0.658.
The value for G1U U9C was 0.554.
The value for G1C A42C was 0.0639.
The value for G35A U69G was 0.541; that for A42G G54C was 0.614.
Turning to C19U G38U, the self-cleavage was found to be 0.
On to G17A G55C, for which the self-cleavage is 0.742.
The figure for U60A A78G is 0.808; for C41U G54U it is 0.931; for C44G U60G it is 0.76.
The value for A43G C48A was 0.81.
With C21U G73U, the self-cleavage turned out to be 0.145.
The value for G35A C66G was 0.655.
Take U27A U65A: the self-cleavage came to 0.95.
For the variant U20G G68U, the self-cleavage stood at 0.201.
The figure for C41A C84G is 0.749.
Take G28U U69A: the self-cleavage was determined as 0.162.
As for U27A U37C, the self-cleavage came to 0.578.
For G29C C62G, the self-cleavage came out at 0.155.
The figure for C13A G59A is 0.166.
The value for A70C C75U was 0.0875; that for C18A C58U was 0.196.
Regarding G6U A71G, the self-cleavage turned out to be 0.399.
The value for A70C G73U was 0.302; that for C3U A71C was 0.427.
The figure for G39U G67U is 0.727; for A8G U69C it is 1.16.
The value for C24G C84U was 0.12.
